Experimental data taken from patent US20230159643A1 (H LUNDBECK A S, published 2023).

Target: T1, Sortilin SORTECDBAP_tetra (tetraodon)
T1 construct: Fully tetraodon Sortilin ECD with BAP tag; also called tetraodon Sortilin
T1 chain: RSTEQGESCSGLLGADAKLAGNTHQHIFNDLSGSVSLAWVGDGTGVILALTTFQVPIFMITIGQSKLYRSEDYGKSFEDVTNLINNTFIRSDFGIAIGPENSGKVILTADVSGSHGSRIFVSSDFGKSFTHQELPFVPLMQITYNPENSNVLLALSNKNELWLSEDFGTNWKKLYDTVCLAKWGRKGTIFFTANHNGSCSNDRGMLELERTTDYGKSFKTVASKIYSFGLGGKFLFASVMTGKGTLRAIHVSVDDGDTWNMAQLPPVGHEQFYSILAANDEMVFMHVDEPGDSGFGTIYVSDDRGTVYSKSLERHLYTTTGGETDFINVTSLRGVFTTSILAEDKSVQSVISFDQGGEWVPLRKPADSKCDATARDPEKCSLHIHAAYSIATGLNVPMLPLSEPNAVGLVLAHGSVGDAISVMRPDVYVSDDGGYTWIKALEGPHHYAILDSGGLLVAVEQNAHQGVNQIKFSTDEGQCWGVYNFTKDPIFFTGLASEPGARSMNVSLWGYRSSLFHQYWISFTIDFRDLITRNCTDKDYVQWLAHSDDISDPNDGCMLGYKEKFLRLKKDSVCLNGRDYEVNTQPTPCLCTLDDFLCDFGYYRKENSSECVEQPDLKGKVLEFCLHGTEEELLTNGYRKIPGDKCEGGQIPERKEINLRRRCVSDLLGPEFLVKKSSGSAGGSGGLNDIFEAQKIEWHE
Experiment: BLI Octet 384RED, antibody on Protein A sensor, Sortilin construct in solution
Protocol: Binding kinetics of anti-Sortilin HuMab antibodies to Sortilin were determined using Octet 384RED (Fortebio, Menlo Park, USA). HuMab solutions of 2 μg/ml were made by dilution in sample diluent (ForteBio, art. No. 18-5028). Prot A sensors (ForteBio, art. no. 18-0004) were prewetted with kinetics buffer (1:10 sample diluent in PBS) for at least 600 seconds. Subsequently sensors were immobilized with HuMab solution for 600 seconds. A baseline response was obtained by dipping in kinetics buffer for 120 seconds. Association of SORTECD constructs was performed during a 1000 seconds incubation. This was followed by dissociation in kinetics buffer for 100 seconds. After dissociation, sensors were regenerated (10 mM Glycine pH 1.0) and neutralized (kinetics buffer) 3 times for 5 seconds. […] A molecular weight of 76.8 kDA was used for SORTECDHis. Data was fitted with ForteBio Analysis 6.4 software, using a global full fit.

- binding result: no binding (tested: 10 µg/ml construct)
B1: 1320 (antibody, V domains shown)
VH: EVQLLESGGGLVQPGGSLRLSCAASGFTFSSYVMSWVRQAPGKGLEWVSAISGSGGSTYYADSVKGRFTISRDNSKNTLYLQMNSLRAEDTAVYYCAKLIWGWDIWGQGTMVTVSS
VL: EIVLTQSPATLSLSPGERATLSCRASQSVSSYLAWYQQRPGQAPRLLIYDASNRATGIPARFSGSGSGTDFTLSISSLEPEDFAVYYCQQRTNWSITFGQGTRLEIK
notes: also called IgG1-6003-1320; Antibody 1320
